Results published in patent US5591427A, “Human Interleukin-3(Il-3) variants and their use to promote or antagonize IL-3-mediated processes” (Medvet Science Pty. Ltd., priority 1979, dated 1997).
Values belong to the molecule of their own block, whether it stands above or below them.

Tests used:
[1] = tested on: bone marrow progenitor cells; assay: Colony assay: clonal proliferation and differentiation of bone marrow progenitor cells in semi-solid agar; type: cell-based
Procedure: (a) Colony assay: this assay measured the clonal proliferation and differentiation of bone marrow progenitor cells in semi-solid agar and was carried out as described (Lopez et. al., 1985, Blood 72, 1797-1804). Briefly, low density, macrophage-depleted bone marrow cells were cultured at a concentration of 0.5 to 1×10^5 /mL in Iscove's modified Dulbecco's medium (IMDM, GIBCI, Grant Island, N.Y.), containing 0.33% agar (Difco, Detroit), 25% FCS (Commonwealth Serum Laboratories, Parkville, Victoria, Australia), and 20 μmol/LK2-mercaptoethanol. Different dilutions of IL-3- containing COS cell supernatants were added to each plate. Plates were prepared in triplicate and scored after incubation at 37° C. in 5% CO2 in a humid atmosphere for 14 days. Clones containing 40 cells were scored as colonies.

[2] = tested on: chronic myeloid leukaemic (CML) cells; assay: Proliferation of chronic myeloid leukaemic (CML) cells, [3H] thymidine incorporation; type: cell-based, human; conditions: for stimulation of CML cell proliferation: FIG. 2, FIG. 8
Procedure: (b ) Proliferation of chronic myeloid leukaemic (CML) cells: Primarily CML cells from one patient were selected for their ability to incorporate [^3 H] thymidine in response to IL-3 as described (Lopez el. al., supra ). Briefly, CML cells were placed at 2×10^5 cells/mL fresh medium containing different concentrations of IL-3. Cells were incubated for 24 hours in a flat bottom 96-well NUNCLON plates (2×10^4 cells/well) before being pulsed with [^3 H] thymidine (0.5 μCi/well) for four more hours at 37° C. The cells were then harvested onto glass filters with a Titertek automated cell harvester and counted into a Beckman liquid scintillation counter. Data are expressed in cpm, and each point is the mean of six replicates.

monocytes = assay: Stimulation of human monocyte adherence (51Cr adhesion assay); type: cell-based; conditions: for stimulation of monocyte adherence: FIG. 3
Procedure: (a) Monocyte purification. Monocytes were purified from the peripheral blood of normal donors, obtained from the Adelaide Red Cross Transfusion Service, as previously described (Elliott et. al., 1990, J. Immunol., 145, 167-171). In brief, mononuclear cells were prepared by centrifugation of whole blood on lymphoprep cushions (Nyegaard, Oslo, Norway) and washed twice in HBSS, 0.02% EDTA, 0.1% heat inactivated FCS (Flow Laboratories, North Ryde, Australia) and monocytes were purified in a Beckman J-6M/E elutriator using the Sanderson chamber, a flow rate of 12 ml/min and a constant rotor speed of 2050 rpm. Cells remaining in the chamber after 30 min were collected, washed twice in HBSS, and used immediately. Using these methods, monocyte purity as assessed by morphology and nonspecific-esterase staining was always >90% and usually >95%. The major contaminating cell types were lymphocytes and granulocytes (principally basophils).
(b) Adhesion assay. Adhesion was measured by an isotopic method essentially as described (Elliott et. al., supra). In brief, purified monocytes (0.5 to 1×10^8) were resuspended in 1 ml RPMI 1640 with 0.1% FCS and antibiotics and incubated for 30 min at 37° C. with 500 μCi^51 Cr in the form of sodium chromate (Amersham International., Buckinghamshire, England). Cells were washed thrice in RPMI 1640 and resuspended in culture medium consisting of RPMI 1640, 10% FCS, antibiotics, and 0.2% sodium bicarbonate. For measurement of adhesion, 1 to 2.5×10^5 monocytes were aliquotted per well in 96-well microtitre plates (Nunc, Karnstrup, Denmark) together with stimuli or control medium to a total volume of […], and incubated for the indicated periods. […] At harvest, samples of supernatant were taken to assess spontaneous ^51 Cr release (usually <10% of cell-associated radioactivity), wells were washed three times with RPMI 1640 at 37° C., and residual adherent cells lysed in 10 mM Tris-hydrochloride, and 1% Nonident p40 detergent (Sigma). Lysates were transferred to tubes and counted in a Packard auto-gamma 5650. Percent adherence was calculated according to the formula: [formula]

basophils = assay: Histamine release assay with basophils; type: cell-based, human; conditions: FIG. 4
Procedure: This was carried out as previously described (Lopez et. al., 1990, J. Cell. Physiol., 145, 69-77). Briefly, basophils were obtained from the peripheral blood of normal individuals after dextran sedimentation and centrifugation over Lymphoprep. The percentage of basophils in these preparations varied between 0.2% and 10%. In 300 μl 2×10^4 cells were incubated with 2 μg/ml of purified human IgE. IgE-sensitisedcells were mixed with a goat IgG antihuman IgE (Cappel 0101-0061) and rhIL-3, in a final volume of 500 μl. After incubation for 60 min at 37° C., the cells were centrifuged and 350 μl aliquots removed and stored at -20° C. before assaying for histamine content. Histamine was assayed using a radioertzymatic method essentially as described (Shaff and Beavan, 1979, Anal. Biochem., 94, 425-430). Briefly, samples of 30 μl were diluted with an equal volume of water and mixed with a 30 μl solution comprising 27.5 μl 0.1 M sodium phosphate, pH 7.9, 1.5 μl rat kidney histamine-N-methyltransferase, and 1.0 μl (0.5 μCi)^3 H-methyl-S-adensoyl-L-methionine (Dupont Net 155, low SA). Tritium-labelled methyl-histamine was extracted into chloroform/ether, dried, and counted by scintillation spectrophotometry. […] as nanograms of histamine per milliliter by extrapolation to a standard curve constructed with 10, 5 and 1 ng/ml of histamine (SIGMA).

[3] = target: T1, IL-3 high affinity receptor of monocytes (Homo sapiens, UniProt P26951+P32927); assay: Competition for 125I-IL-3 binding to the high affinity receptor of monocytes; conditions: FIG. 5, at the concentrations tested
T1 construct: endogenous in cells; host or cells: freshly purified human peripheral blood monocytes
T1 sequence (P26951 19-378): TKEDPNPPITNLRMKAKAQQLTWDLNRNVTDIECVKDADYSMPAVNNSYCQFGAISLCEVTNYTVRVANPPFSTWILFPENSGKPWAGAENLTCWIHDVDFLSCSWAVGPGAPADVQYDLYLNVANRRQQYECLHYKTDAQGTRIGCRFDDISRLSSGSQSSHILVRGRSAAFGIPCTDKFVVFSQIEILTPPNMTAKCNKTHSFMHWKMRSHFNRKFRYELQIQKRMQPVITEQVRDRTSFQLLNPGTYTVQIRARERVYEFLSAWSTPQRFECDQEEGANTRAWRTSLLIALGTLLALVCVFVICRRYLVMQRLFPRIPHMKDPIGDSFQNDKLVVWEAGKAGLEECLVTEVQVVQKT
T1 sequence (P32927 17-897): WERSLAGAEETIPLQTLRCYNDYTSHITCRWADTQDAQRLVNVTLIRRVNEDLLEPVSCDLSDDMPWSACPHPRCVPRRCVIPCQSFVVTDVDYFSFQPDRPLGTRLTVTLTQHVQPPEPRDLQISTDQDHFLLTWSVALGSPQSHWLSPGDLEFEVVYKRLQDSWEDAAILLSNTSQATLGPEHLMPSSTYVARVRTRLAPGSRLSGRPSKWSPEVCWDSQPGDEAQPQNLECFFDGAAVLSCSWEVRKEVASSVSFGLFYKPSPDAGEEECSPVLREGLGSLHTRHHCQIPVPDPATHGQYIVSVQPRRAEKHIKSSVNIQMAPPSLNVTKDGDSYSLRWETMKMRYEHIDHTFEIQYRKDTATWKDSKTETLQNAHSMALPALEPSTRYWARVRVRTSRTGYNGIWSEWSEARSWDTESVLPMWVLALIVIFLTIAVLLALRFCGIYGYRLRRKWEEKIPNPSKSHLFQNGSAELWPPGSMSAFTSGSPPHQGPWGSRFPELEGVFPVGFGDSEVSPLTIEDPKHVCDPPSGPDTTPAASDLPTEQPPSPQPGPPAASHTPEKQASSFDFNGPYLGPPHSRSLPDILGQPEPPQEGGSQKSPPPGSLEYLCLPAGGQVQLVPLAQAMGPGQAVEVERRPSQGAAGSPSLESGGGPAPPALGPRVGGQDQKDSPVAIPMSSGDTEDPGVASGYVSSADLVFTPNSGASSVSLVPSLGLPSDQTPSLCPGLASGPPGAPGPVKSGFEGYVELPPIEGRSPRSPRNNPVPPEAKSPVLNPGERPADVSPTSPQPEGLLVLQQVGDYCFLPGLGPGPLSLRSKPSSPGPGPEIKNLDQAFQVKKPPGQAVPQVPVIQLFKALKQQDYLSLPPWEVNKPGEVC
Procedure: (a) Radioiodination of hIL-3: rh IL-3 (gift from Dr. L. Park, Immunex Corporation, Seattle, Wash.) was radioiodinated by the ICI method as previously described (Contreras et. al., supra). Iodinated protein was separated from free ^125 I by chromatography on a Sephadex G-25 PD 10 column (Pharmacia, Uppsala, Sweden) equilibrated in phosphate-buffered saline (PBS) containing 0.02% Tween 20, and stored at 4° C. for up to 4 weeks. Before use, the iodinated protein was purified from Tween and nonprotein-associated radioactivity by cation exchange chromatography on a 0.3-ml CM-Sepharose CL-6B column (Pharmacia) and stored at 4° C. for up to 5 days.
(b) Competition Binding assay. Freshly purified monocytes were suspended in binding medium consisting of RPMI 1640 supplemented with 20 mmol/L/HEPES and 0.5% bovine serum albumin (BSA). […] Cell suspensions were then overlaid on 0.2 mL FCS at 4° C. and centrifuged for 30 seconds at a maximum speed in a Beckman Microfugre 12. The tip of each tube was cut off above the visible cell pellet and counted in a Packard Auto-Gamma 5650 (Downer's Grove, Ill). The results are expressed as Percent competition where 100% is the competition observed in the presence of 100 fold excess native IL-3.

[4] = concentration of IL-3 mutant giving 50% of biological activity compared to that of wild type IL-3

B1: M9: human IL-3 mutant, amino acid 116 (Lys) replaced by Val (protein, UniProt P08700 20-152, looked up, variant K116V)
Interleukin-3: APMTQTTPLKTSWVNCSNMIDEIITHLKQPPLPLLDFNNLNGEDQDILMENNLRRPNLEAFNRAVKSLQNASAIESILKNLLPCLPLATAAPTRHPIHIKDGDWNEFRRKLTFYLVTLENAQAQQTTLSLAIF
- number of day 14 colonies [1]: increase in the number of day 14 colonies
- Relative biological activity, PROLIFERATION COLONIES ([1]; concentration of IL-3 mutant giving 50% of biological activity compared to that of wild type IL-3, mean ± SD): 420
- stimulation of CML cell proliferation [2]: more potent than the wild type IL-3
- Relative biological activity, PROLIFERATION CML [2, 4]: 328
- stimulation of monocyte adherence (monocytes): more potent than the wild type IL-3
- Relative biological activity, MONOCYTE (monocytes; [4]): 312
- histamine release from basophils (basophils): increased histamine release

- binding to high affinity IL-3 receptors of monocytes [3]: negative at binding
B2: M25: human IL-3 mutant with substitution of residues 21, 22 and 25 (protein, UniProt P08700 20-152, looked up, variant D21A E22L T25A)
Interleukin-3: APMTQTTPLKTSWVNCSNMIALIIAHLKQPPLPLLDFNNLNGEDQDILMENNLRRPNLEAFNRAVKSLQNASAIESILKNLLPCLPLATAAPTRHPIHIKDGDWNEFRRKLTFYLKTLENAQAQQTTLSLAIF
- stimulation of CML cell proliferation [2]: lack of stimulation
- stimulation of monocyte adherence (monocytes): lack of stimulation
